Patent US6133431

Columns and labels:
[1] = molecular target: thermally coagulated immunoglobulin complexes; assay: batch adsorption from healthy human serum with 20 µg/ml thermally coagulated complexes, peptide on Thiopropyl Sepharose 6B (0.8 mg/ml), 37 °C 2 h, supernatant by C1q-CIC kit
[2] = molecular target: IgG in human serum; assay: batch adsorption from the serum of a healthy subject, peptide on Thiopropyl Sepharose 6B (0.8 mg/ml), 37 °C 2 h, supernatant by N-Assay TIA kit
[3] = molecular target: IgM in human serum; assay: as above
[4] = molecular target: circulating immune complexes in the serum of a patient suffering from rheumatism; assay: batch adsorption from the serum of a patient suffering from rheumatism, peptide on Thiopropyl Sepharose 6B (0.8 mg/ml), 37 °C 2 h, supernatant by C1q-CIC kit
[5] = molecular target: IgG1 subclass in human serum; assay: batch adsorption from the serum of a healthy subject, peptide on Thiopropyl Sepharose 6B (0.8 mg/ml), supernatant by immune diffusion (SRID)
[6] = molecular target: IgG2 subclass in human serum; assay: as above
[7] = molecular target: IgG4 subclass in human serum; assay: as above
[8] = molecular target: IgG3 subclass in human serum; assay: as above
[9] = molecular target: IgG in human serum; assay: batch adsorption from human serum with 20 µg/ml Model IC, peptide on GCL2000m gel (2.1 mg/ml), 37 °C 2 h, not sterilised, N-Assay TIA kit
[10] = molecular target: thermally coagulated immunoglobulin complexes; assay: batch adsorption from human serum with 20 µg/ml Model IC, peptide on GCL2000m gel (2.1 mg/ml), 37 °C 2 h, not sterilised, C1q-CIC enzyme immunoassay
[11] = molecular target: IgG in human serum; assay: batch adsorption from human serum with 20 µg/ml Model IC, peptide on GCL2000m gel (2.5 mg/ml), not sterilised, N-Assay TIA kit
[12] = molecular target: thermally coagulated immunoglobulin complexes; assay: batch adsorption from human serum with 20 µg/ml Model IC, peptide on GCL2000m gel (2.5 mg/ml), not sterilised, C1q-CIC enzyme immunoassay
[13] = molecular target: IgG in human serum; assay: batch adsorption from human serum with 20 µg/ml Model IC, peptide on GCL2000m gel (2.6 mg/ml), not sterilised, N-Assay TIA kit
[14] = molecular target: thermally coagulated immunoglobulin complexes; assay: batch adsorption from human serum with 20 µg/ml Model IC, peptide on GCL2000m gel (2.6 mg/ml), not sterilised, C1q-CIC enzyme immunoassay
[15] = molecular target: thermally coagulated immunoglobulin complexes; assay: batch adsorption from human serum with 20 µg/ml Model IC, peptide on GC700m gel (2.6 mg/ml), not sterilised, C1q-CIC enzyme immunoassay
[16] = molecular target: IgG in human serum; assay: batch adsorption from human serum with 20 µg/ml Model IC, peptide on GC700m gel (2.6 mg/ml), not sterilised, N-Assay TIA kit
[17] = molecular target: IgG in human serum; assay: batch adsorption from human serum with 20 µg/ml Model IC, peptide on GC700m gel (4.0 mg/ml), not sterilised, N-Assay TIA kit
[18] = molecular target: thermally coagulated immunoglobulin complexes; assay: batch adsorption from human serum with 20 µg/ml Model IC, peptide on GC700m gel (4.0 mg/ml), not sterilised, C1q-CIC enzyme immunoassay
[19] = molecular target: thermally coagulated immunoglobulin complexes; assay: batch adsorption from human serum with 20 µg/ml Model IC, peptide on AF-Torecyl Toyopearl 650 (3.6 mg/ml), not sterilised, C1q-CIC enzyme immunoassay
[20] = molecular target: IgG in human serum; assay: batch adsorption from human serum with 20 µg/ml Model IC, peptide on AF-Torecyl Toyopearl 650 (3.6 mg/ml), not sterilised, N-Assay TIA kit

B1: peptide having a sequence consisting of 57 residues of domain C3 of protein G with cysteine added to an N-terminus (peptide)
peptide: CTTYKLVINGKTLKGETTTKAVDAETAEKAFKQYANDNGVDGVWTYDDATKTFTVTE
Question: B1 was tested. Which adsorption ratio of thermally coagulated complexes (%) [1] did it give?
Answer: 41.7%

Question: What about the adsorption ratio of immunoglobulins (%) [2] of the same binder?
Answer: 83.4%

Question: And the adsorption ratio of immunoglobulins (%) [3]?
Answer: 2.7%

Question: What about the adsorption ratio of immune complexes (%) [4] of the same binder?
Answer: 29.3%

Question: And the adsorption ratio of IgG subclasses (%) [5]?
Answer: 93.2%

Question: And the adsorption ratio of IgG subclasses (%) [6]?
Answer: 78.9%

Question: And the adsorption ratio of IgG subclasses (%) [7]?
Answer: 65.7%

Question: And the adsorption ratio of IgG subclasses (%) [8]?
Answer: 63.2%

B2: MK3P47 peptide (peptide)
peptide: MKKKTTYKLVINGKTLKGETTTKAVDAETAEKAFKQYANDNGVDGVWTYDPATKTFTVTE
Question: Which results are given for B2?
Answer: IgG adsorption ratio (%) [9]: 85%; IC adsorption ratio (%) [10]: 35%

B3: MK3G56 peptide (peptide)
peptide: MKKKTTYKLVINGKTLKGETTTKAVDAETAEKAFKQYANDNGVDGVWTYDDATKTFTVTE
Question: With B3 as the binder, how does the IgG adsorption ratio (%) [11] read?
Answer: 70%

Question: And the IC adsorption ratio (%) [12]?
Answer: 30%

B4: MP47K3 peptide (peptide)
peptide: MTTYKLVINGKTLKGETTTKAVDAETAEKAFKQYANDNGVDGVWTYDPATKTFTVTEKKK
Question: For B4, which IgG adsorption ratio (%) [13] is on record?
Answer: 70%

Question: What about the IC adsorption ratio (%) [14] of the same binder?
Answer: 35%

B5: MP47 peptide (peptide)
peptide: MTTYKLVINGKTLKGETTTKAVDAETAEKAFKQYANDNGVDGVWTYDPATKTFTVTE
Question: B5 was tested. Which IC adsorption ratio (%) [15] did it give?
Answer: 35%

Question: And the IgG adsorption ratio (%) [16]?
Answer: 60%

B6: MP47C peptide (peptide)
peptide: MTTYKLVINGKTLKGETTTKAVDAETAEKAFKQYANDNGVDGVWTYDPATKTFTVTEC
Question: B6 was tested. Which IgG adsorption ratio (%) [17] did it give?
Answer: 90%

Question: What about the IC adsorption ratio (%) [18] of the same binder?
Answer: 65%

B7: MG56 peptide (peptide)
peptide: MTTYKLVINGKTLKGETTTKAVDAETAEKAFKQYANDNGVDGVWTYDDATKTFTVTE
Question: How did the IgG adsorption ratio (%) [17] turn out when B7 was run?
Answer: 65%

Question: And the IC adsorption ratio (%) [18]?
Answer: 30%

B8: MK3-7M peptide (peptide)
peptide: MKKKTTYKLILNGKTLKGETTTKAVDAATAEKVFKQYANDNGVDGEWTYDPATKTFTVTE
Question: How did the IC adsorption ratio (%) [19] turn out when B8 was run?
Answer: 35%

Question: And the IgG adsorption ratio (%) [20]?
Answer: 75%
